To fix the notation:
B1: 4H6-H3K2-IgG4 (antibody, V domains shown)
VH: EVQLQESGPGLVKPSQTLSLTCTVSGDSVSSGYWNWIRKHPGKKLEYMGFISYSGSTYYTPSLKSRITISRDTSKNQFSLKLSSVTAADTAVYFCARFRRYDDGVDYWGQGTLVTVSS
VL: DIQMTQSPSAMSASVGDRVTITCRASHEISGYLSWIQQKPGGTIKRLINAASTLASGVPSRFSGSRSGTEFTLTISSLQPEDFADYYCLQYSSYPWTFGGGTKLEIK
notes: Humanized
B2: 4H6-H4K2-IgG4 (antibody, V domains shown)
VH: B1 VH with H40F
VL: B1 VL
notes: Humanized
B3: 6A7-H3K3-IgG4 (antibody, V domains shown)
VH: QVQLVQSGAEVKKPGASVKVSCKASGYTFISYYIYWVRQAPGQGLEWIGGINPRNGGTNFNEKFKSRATLTVDTSISTAYMELSRLRSEDTAVYYCTRHGNGVYWGQGTTVTVSS
VL: DVVMTQSPLSLPVTLGDPASISCRSSQSLLHSNGNTYLHWYQQRPGQSPNHLIYQVSNRFSGVPDRFSGSGSGTDFTLKISRVEAEDVGVYFCSQTTHVPWTFGGGTKLEIK
notes: Humanized
B4: 6A7-H4K2-IgG4 (antibody, V domains shown)
VH: B3 VH with V20L, R38K, V111L
VL: B3 VL with D17Q, L109V
notes: Humanized

By Kd is commonly meant the concentration at which binding is half-saturated. The low end stands for higher affinity, the high end for lower affinity. The koff is a measure of how fast the partners let go of each other. By kon is commonly meant the rate constant with which the complex forms. Low readings indicate slower complex formation, high ones faster complex formation.

Changes are numbered by the printed parent chain.

The target in the first assay is T1, Histidine-tagged human CD40 protein (hCD40-His) (human, UniProt P25942 21-193).
T1 construct: not shown: histidine tag
T1 sequence (P25942 21-193 limits assumed): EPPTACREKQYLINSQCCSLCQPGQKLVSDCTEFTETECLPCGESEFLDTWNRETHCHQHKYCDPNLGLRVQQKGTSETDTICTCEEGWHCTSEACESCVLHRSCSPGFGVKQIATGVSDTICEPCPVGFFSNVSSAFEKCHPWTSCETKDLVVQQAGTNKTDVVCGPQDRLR
Nature of the assay: SPR, Biacore T200; antibody on Protein A chip, hCD40-His injected; 1:1 fit. As to the method: The binding affinity of the anti-hCD40 antibodies were measured using surface plasmon resonance (SPR) using Biacore (Biacore, INC, Piscataway N.J.) T200 biosensor equipped with pre-immobilized Protein A sensor chips.
Anti-hCD40 antibodies were collected by transfecting CHO-S cells and then purified. The antibodies (1 μg/mL) were injected into Biacore T200 biosensor at 10 μL/min for about 24-33 seconds to achieve to a desired protein density (about 44-57 response units (RU)). […] Dissociation was monitored for 300 seconds. The chip was regenerated after the last injection of each titration with Glycine (pH 2.0, 30 μL/min for 12 seconds).
Background: In SPR one partner is held on a chip, and binding of the other changes the refractive index at the surface.
In the case of B1, binding was characterised by a dissociation constant (Kd) of 53.6 nM, the koff worked out at 0.0215 s⁻¹ and the on-rate constant (kon) amounted to 401000 M⁻¹ s⁻¹.

The molecule B2 gave an equilibrium dissociation constant (Kd) of 48.7 nM, an off-rate constant (koff) of 0.0191 s⁻¹ and an on-rate (kon) of 392000 M⁻¹ s⁻¹.

Regarding B3, the Kd came out at 2.9 nM, the koff was determined as 0.000356 s⁻¹ and the kon was 123000 M⁻¹ s⁻¹.

B4 showed a Kd of 3.06 nM, a koff of 0.000322 s⁻¹ and a kon of 105000 M⁻¹ s⁻¹.

Another assay addresses T2, Histidine-tagged mfCD40 protein (mfCD40-His), Macaca fascicularis (Macaca fascicularis, UniProt G7PG38 21-193).
T2 construct: not shown: histidine tag
In words: SPR, Biacore T200; antibody on Protein A chip, mfCD40-His injected; 1:1 fit. As to the method: The binding affinity of the anti-hCD40 antibodies with mfCD40 (Macaca fascicularis) were measured using surface plasmon resonance (SPR) using Biacore (Biacore, INC, Piscataway N.J.) T200 biosensor equipped with pre-immobilized Protein A sensor chips.
Anti-hCD40 antibodies were purified. The antibodies (0.5 μg/mL) were injected into Biacore T200 biosensor at 10 μL/min for about 18-26 seconds to achieve to a desired protein density (about 44-58 response units (RU)). […] Dissociation was monitored for 300-600 seconds. The chip was regenerated after the last injection of each titration with Glycine (pH 2.0, 30 μL/min for 12 seconds).
Regarding B1, the Kd came to 33.6 nM, the koff is 0.0192 s⁻¹ and the kon was 570000 M⁻¹ s⁻¹.

B2: the affinity, expressed as Kd, was 29.7 nM; the off-rate (koff) is 0.0169 s⁻¹; the on-rate (kon) was found to be 568000 M⁻¹ s⁻¹.

Take B3: binding was put at a Kd of 0.871 nM, the koff was determined as 0.000201 s⁻¹ and the on-rate constant (kon) worked out at 231000 M⁻¹ s⁻¹.

The molecule B4 displayed a Kd of 3.96 nM, a dissociation rate constant (koff) of 0.000787 s⁻¹ and an association rate constant (kon) of 199000 M⁻¹ s⁻¹.
